Where a chain is given by its changes, count along the chain named. Names and notes keep the numbering of the source. Where two headings read alike, the source gives them in different places. Values belong to the binder of their own block, whether it stands above or below them. Ends that are not written are not given here.
Legend:
[1] = biological target: integrins on PC3 cells (adhesion to vitronectin); assay: cell-based or functional assay
[2] = biological target: human umbilical vein endothelial cells (HUVECs), which express medium levels of the αvβ3, αvβ5 integrins, the Met receptor, and a high level of the α5β1 integrin; assay: HUVEC cell binding assay
[3] = biological target: integrins on PC3 cells (adhesion to vitronectin); assay: cell-based or functional assay; remark: listed apart in the source
[4] = biological target: integrins on PC3 cells (adhesion to vitronectin)

Half-maximal inhibitor concentration, inhibition of PC3 cell adhesion to human vitronectin [1]: 20 to 40 nM
B1: EETI2.5F-Aras4 fusion protein (designed binder)
chain: DYKDDDDKPRGCPRPRGDNPPLTCSQDSDCLAGCVCGPNGFCGYAEGQGKRRNTIHEFKKSAKTTLIKIDPALRIKTEKANTADQCANRCTRSKGLPFTCKAFVFDKARKRCLWFPFNSMSSGVKKEFGHEFDLYENKAYIRDCIIGRGRNYRGTVSITKSGIKCQPWSAMIPHEHSFLPSSYRGEDLRENYCRNPRGEEGGPWCYTSDPEVRYEVCDIPQCSEVETRHHHHHH

Kd [2]: 4.7 nM
B2: EETI2.5F-M2.2(D127A) fusion protein (designed binder)
chain: B1 chain with G49R, R74K, A80V, S93N, A139D, D143A, R148N, N151S, A170S, Y206F

Half-maximal inhibitor concentration, inhibition of PC3 cell adhesion to human vitronectin [3]: 20 to 40 nM
Binder: GCPRPRGDNPPLTCKQDSDCLAGCVCGPNGFCG (designed binder) [EETI-II mutant 2.5F]

IC50 (read off the curve), PC3 cell adhesion to vitronectin [4]: 10 nM
B5: knottin 2.5F-Fc (EETI 2.5F fused to the Fc domain of mouse Ig2a) (Fc fusion)
chain: GCPRPRGDNPPLTCKQDSDCLAGCVCGPNGFCGEPRGPTIKPCPPCKCPAPNLLGGPSVFIFPPKIKDVLMISLSPIVTCVVVDVSEDDPDVQISWFVNNVEVHTAQTQTHREDYNSTLRVVSALPIQHQDWMSGKEFKCKVNNKDLPAPIERTISKPKGSVRAPQVYVLPPPEEEMTKKQVTLTCMVTDFMPEDIYVEWTNNGKTELNYKNTEPVLDSDGSYFMYSKLRVEKKNWVERNSYSCSVVHEGLHNHHTTKSFSRTPGK

IC50 (read off the curve), PC3 cell adhesion to vitronectin [4]: 10 nM
B6: knottin 2.5D-Fc (EETI 2.5D fused to the Fc domain of mouse Ig2a) (Fc fusion)
chain: B5 chain with R4Q, P5G, N9W, P10A, L12T, T13S, L21R

Continued, binder first:

B3: AgRP7A-Aras4 fusion protein (soluble, FLAG and His tagged) (designed binder)
chain: DYKDDDDKPRGCVRLHESCLGQQVPCCDPAATCYCSGRGDNDLVCYCRYAEGQGKRRNTIHEFKKSAKTTLIKIDPALRIKTEKANTADQCANRCTRSKGLPFTCKAFVFDKARKRCLWFPFNSMSSGVKKEFGHEFDLYENKAYIRDCIIGRGRNYRGTVSITKSGIKCQPWSAMIPHEHSFLPSSYRGEDLRENYCRNPRGEEGGPWCYTSDPEVRYEVCDIPQCSEVETRHHHHHH
Half-maximal inhibitor concentration, inhibition of PC3 cell adhesion to human vitronectin [1]: 20 to 40 nM

B4: AgRp7A-M2.2(D127A) fusion protein (designed binder)
chain: B3 chain with G54R, R79K, A85V, S98N, A144D, D148A, R153N, N156S, A175S, Y211F
Kd [2]: 9.4 nM

B7: AgRP mutant 7A (designed binder)
chain: GCVRLHESCLGQQVPCCDPAATCYCSGRGDNDLVCYCR
modifications: ends and bridges not checked; also: four disulfide bonds, pairings not given here
Half-maximal inhibitor concentration, inhibition of PC3 cell adhesion to human vitronectin [1]: 20 to 40 nM
